The target of one assay is HLA-B*27:05. Put plainly: IEDB peptide-MHC binding, purified MHC/direct/fluorescence; filed as Kd, often an IC50 or EC50 that approximates it; ≥ and ≤ were set here for values at or beyond the usual limits of such assays.
The target of the next assay is HLA-A*11:01. Described as above.
Another assay has as its target HLA-B*18:01. The assay is described as above. Particulars: source organism: Mycobacterium tuberculosis.
Another assay addresses HLA-B*57:01. Described as above. Particulars: source organism: Mycobacterium tuberculosis.
The target in another assay is HLA-B*44:02. The description is as above.
Assay [1] deals with HLA-B*40:01. Described as above.
Another assay has as its target HLA-A*69:01. Described as above.
The next assay concerns the target HLA-A*31:01. The description is as above.
Another assay deals with HLA-A*29:02. The assay is described as above. Particulars: source organism: Mycobacterium tuberculosis.
A further assay addresses HLA-B*46:01. Described as above. Particulars: source organism: Mycobacterium tuberculosis.
The next assay deals with HLA-B*08:03. Described as above. Particulars: source organism: Mycobacterium tuberculosis str. Haarlem.
Assay [2] addresses HLA-B*58:01. The description is as above.
Another assay addresses HLA-A*02:01. The assay is described as above.
Assay [3] deals with HLA-A*03:01. The description is as above.
The target in assay [4] is HLA-A*01:01. The assay is described as above.
A further assay addresses HLA-C*05:01. The description is as above.
A further assay has as its target HLA-C*12:03. The assay is described as above. Particulars: source organism: Toxoplasma gondii RH.
A further assay addresses HLA-A*68:02. Nature of the assay: IEDB peptide-MHC binding, purified MHC/competitive/fluorescence; filed as Kd, often an IC50 or EC50 that approximates it; ≥ and ≤ were set here for values at or beyond the usual limits of such assays. The settings on record: source organism: Toxoplasma gondii RH.
The target of assay [5] is HLA-B*35:01. Nature of the assay: IEDB peptide-MHC binding, purified MHC/direct/fluorescence; filed as Kd, often an IC50 or EC50 that approximates it; ≥ and ≤ were set here for values at or beyond the usual limits of such assays.
Assay [6] concerns the target HLA-B*08:01. The assay is described as above.
The target of assay [7] is HLA-B*15:01. Described as above.
For assay [8], the target named is HLA-A*26:01. The assay is described as above.
Assay [9] has as its target HLA-B*58:01. Put plainly: IEDB peptide-MHC binding, purified MHC/competitive/fluorescence; filed as Kd, often an IC50 or EC50 that approximates it; ≥ and ≤ were set here for values at or beyond the usual limits of such assays.
The target in another assay is HLA-C*08:02. Put plainly: IEDB peptide-MHC binding, purified MHC/direct/fluorescence; filed as Kd, often an IC50 or EC50 that approximates it; ≥ and ≤ were set here for values at or beyond the usual limits of such assays.
The target in assay [10] is HLA-B*35:01. Put plainly: IEDB peptide-MHC binding, purified MHC/competitive/fluorescence; filed as Kd, often an IC50 or EC50 that approximates it; ≥ and ≤ were set here for values at or beyond the usual limits of such assays.
Assay [11] deals with HLA-A*01:01. Described as above.
The target in assay [12] is HLA-B*40:01. The assay is described as above.
The target of assay [13] is HLA-B*15:01. The description is as above.
Assay [14] addresses HLA-A*03:01. The assay is described as above. The settings on record: source organism: Escherichia coli str. K-12 substr. MG1655.
Assay [15] deals with HLA-B*35:01. Put plainly: IEDB peptide-MHC binding, purified MHC/competitive/radioactivity; filed as Kd, often an IC50 or EC50 that approximates it; ≥ and ≤ were set here for values at or beyond the usual limits of such assays. The settings on record: source organism: SARS coronavirus Tor2.
A further assay concerns the target HLA-B*54:01. The assay is described as above. Particulars: source organism: SARS coronavirus Tor2.
In assay [16] the target is HLA-B*07:02. The assay is described as above. The settings on record: source organism: SARS coronavirus Tor2.
For a further assay, the target named is HLA-B*53:01. The description is as above. Particulars: source organism: SARS coronavirus Tor2.
The target in another assay is HLA-B*51:01. Described as above. The settings on record: source organism: SARS coronavirus Tor2.
Another assay has as its target HLA-A*24:03. Nature of the assay: IEDB peptide-MHC binding, purified MHC/direct/fluorescence; filed as Kd, often an IC50 or EC50 that approximates it; ≥ and ≤ were set here for values at or beyond the usual limits of such assays. The settings on record: source organism: Coxiella burnetii.
Assay [17] has as its target HLA-B*07:02. The assay is described as above. Particulars: source organism: Coxiella burnetii.
A further assay addresses HLA-C*03:03. Described as above. Particulars: source organism: Mycobacterium tuberculosis C.
Assay [18] deals with HLA-A*26:01. Put plainly: IEDB peptide-MHC binding, purified MHC/competitive/fluorescence; filed as Kd, often an IC50 or EC50 that approximates it; ≥ and ≤ were set here for values at or beyond the usual limits of such assays. The settings on record: source organism: Escherichia coli str. K-12 substr. MG1655.
In assay [19] the target is HLA-B*08:01. The assay is described as above. The settings on record: source organism: Escherichia coli.
[20] abbreviates: source organism: Mycobacterium tuberculosis.
Where [21] appears, read: source organism: Escherichia coli O157:H7.
[22] abbreviates: source organism: Salmonella enterica subsp. enterica serovar Typhi.
[23] abbreviates: source organism: Escherichia coli str. K-12 substr. MG1655.
The mark [24] stands for this setting: source organism: Coxiella burnetii.
The mark [25] stands for this setting: source organism: Shigella flexneri 5 str. 8401.

The source of these data is the Immune Epitope Database (IEDB).

Bounds are passed on as bounds.

Consider WMRGRGRAL, for which the Kd with HLA-B*27:05 (setting [20]), with HLA-A*11:01 (setting [20]), with HLA-B*18:01, with HLA-B*57:01, with HLA-B*44:02 (setting [20]) and with HLA-B*40:01 [1] (setting [20]) was at least 20 µM in each case. Besides, the Kd with HLA-A*69:01 (setting [20]), with HLA-A*31:01 (setting [20]), in the assay with HLA-A*29:02, with HLA-B*46:01, with HLA-B*08:03 and with HLA-B*58:01 [2] (setting [20]) was at least 20 µM each time. Besides, the Kd in the assay with HLA-A*02:01 (setting [20]), with HLA-A*03:01 [3] (setting [20]) and with HLA-A*01:01 [4] (setting [20]) was at least 20 µM in each case.

For the sequence FLDPHPYYV, the Kd (in general, the equilibrium constant for the complex coming apart) in the assay with HLA-C*05:01 (source organism: Toxoplasma gondii RH) was at most 0.001 µM; with HLA-C*12:03 it was 0.047 µM; with HLA-A*68:02 it was 0.0563 µM.

In the case of IRNPPMVVF, the Kd with HLA-B*27:05 (setting [21]) is 3.25 µM; in the assay with HLA-A*11:01 (setting [21]) it was at least 20 µM; with HLA-B*35:01 [5] (setting [21]), at least 10 µM; in the assay with HLA-B*44:02 (setting [21]), at least 20 µM; with HLA-B*40:01 [1] (setting [21]) it was at least 20 µM; with HLA-A*69:01 (setting [21]), at least 20 µM. For the same sequence, the Kd with HLA-B*08:01 [6] (setting [21]), with HLA-A*31:01 (setting [21]), with HLA-B*15:01 [7] (setting [21]), in the assay with HLA-A*26:01 [8] (setting [21]), in the assay with HLA-B*58:01 [2] (setting [21]) and with HLA-A*02:01 (setting [21]) was at least 20 µM each time. Besides, the Kd with HLA-A*03:01 [3] (setting [21]) and with HLA-A*01:01 [4] (setting [21]) was at least 20 µM in each case.

As to ISASLAALF, the Kd with HLA-B*58:01 [9] (source organism: Bacillus anthracis str. A0488) turned out to be 0.0017 µM.

Regarding FAADKDSLY, the Kd with HLA-C*08:02 (source organism: Salmonella enterica subsp. enterica serovar Typhi str. CT18) is at least 20 µM; in the assay with HLA-B*35:01 [10] (setting [22]), 0.0002 µM; with HLA-A*01:01 [11] (setting [22]), 0.313 µM.

Turning to IEVTNATEL, in the assay with HLA-B*40:01 [12] (source organism: Influenza A virus), the Kd is 0.0056 µM.

As for KVGITGFCY, the results for the Kd in the assay with HLA-B*15:01 [13] (setting [23]), in the assay with HLA-B*58:01 [9] (setting [23]) and in the assay with HLA-A*03:01 [14] were 0.247 µM, 0.418 µM and 2.2 µM, respectively.

APYMVGDVI: the Kd in the assay with HLA-C*05:01 (source organism: SARS-CoV1) is at least 20 µM; in the assay with HLA-B*35:01 [15], 11 µM; with HLA-B*54:01 it was at least 27.3 µM; with HLA-B*07:02 [16], 0.139 µM; with HLA-B*53:01, 3.58 µM; with HLA-B*51:01 it was 0.08 µM.

In the assay with HLA-B*40:01 [12] (source organism: Yersinia frederiksenii ATCC 33641), MENMLDLLM registered a Kd of 0.0102 µM.

Take WAPEGDIRL: the Kd with HLA-B*27:05 (setting [24]) was at least 20 µM; with HLA-A*11:01 (setting [24]), at least 20 µM; in the assay with HLA-A*24:03, at least 20 µM; with HLA-B*35:01 [5] (setting [24]), 0.899 µM; with HLA-B*44:02 (setting [24]) it was at least 20 µM; with HLA-B*40:01 [1] (setting [24]), at least 20 µM. Also, the Kd was at least 20 µM with HLA-A*69:01 (setting [24]); at least 20 µM with HLA-B*08:01 [6] (setting [24]); 4.29 µM with HLA-B*07:02 [17]; at least 20 µM with HLA-A*31:01 (setting [24]); at least 20 µM with HLA-B*15:01 [7] (setting [24]); at least 20 µM with HLA-A*26:01 [8] (setting [24]). The Kd with HLA-B*58:01 [2] (setting [24]) is at least 20 µM; in the assay with HLA-A*02:01 (setting [24]), 0.33 µM; in the assay with HLA-A*03:01 [3] (setting [24]) it was at least 20 µM; with HLA-A*01:01 [4] (setting [24]) it was at least 20 µM.

In the case of GELESAIGL, the Kd with HLA-B*40:01 [12] (setting [25]) is 0.0028 µM; in the assay with HLA-B*15:01 [13] (setting [25]), at least 20 µM.

Turning to YLPDPTVGV, the Kd in the assay with HLA-C*03:03 and in the assay with HLA-C*08:02 (source organism: Mycobacterium tuberculosis C) was at least 20 µM in each case.

As for RINEGWPAY, the Kd with HLA-B*35:01 [10] (setting [23]) was 0.0592 µM; with HLA-B*15:01 [13] (setting [23]), 0.084 µM; with HLA-A*26:01 [18], at least 20 µM; with HLA-B*58:01 [9] (setting [23]), at least 20 µM; with HLA-A*03:01 [14], 0.0422 µM; in the assay with HLA-A*01:01 [11] (setting [23]), 0.481 µM.

On to HENARLRAL, for which the Kd with HLA-B*40:01 [12] (source organism: Escherichia coli) was determined as 0.0048 µM; in the assay with HLA-B*08:01 [19] it was 0.175 µM.
